Test results reported in publication PMC4324016 (2014).
Like-named read-outs stand apart in the source and are kept apart here.

Columns and labels:
[1] = biological target: T1, HLA-Cw*0102 on TAP deficient 721.174 cells (human (endogenous in 721.174)); assay: FACS
[2] = biological target: T1, HLA-Cw*0102 on TAP deficient 721.174 …; assay: FACS; remark: listed apart in the source

Kd [1] [nM]	Kd [2] [nM]	Binder
140	–	VAPWNSFAL [VAPWNSFAL peptide]
190	–	VAPWNSRAL [VAPWNSRAL peptide]
140	–	VAPWNSDAL [VAPWNSDAL peptide]
–	180	VAPWNSLSL
